Laboratory results published in PMC5557857 (2017).

Legend:
[1] = molecular target: epidermal growth factor receptor 2 (HER2) expressed on SKOV3 cells (human (endogenous in SKOV3)) (UniProt P04626); test: split reporter (BiFC, NanoBiT); TEC screen: HER2-expressing SKOV3 cells incubated 1 hr at ambient temperature with clarified lysates of one β9 fusion and one β10 fusion (PBS + 1% BSA), washed 3 times, luminescence 30 min after Δ11S lysate (1:20) and Nano-Glo substrate; signal-to-background, average of three days
[2] = molecular target: T1, β10 peptide (synthetic) (Oplophorus gracilirostris, Synthetic 11-mer. The sequence is only in Table S1, so the high-affinity NanoBiT peptide 86 (HiBiT-type) variant of strand 10 is assumed. Termini are not stated.); test: luminescence complementation, 10 uM Nano-Glo substrate
T1 chain: VSGWRLFKKIS

9.29-β10 (DARPin 9.29 with β10 at the C-terminus) (designed binder)
TEC signal-to-background with PertH-β9 [1]: 346
TEC signal-to-background with β9-G3 [1]: 122
TEC signal-to-background with β9-L73J [1]: 597
TEC signal-to-background with β9-LPert [1]: 265

G3-β9 (DARPin G3 with β9 at the C-terminus) (designed binder)
TEC signal-to-background with PertH-β10 [1]: 122
TEC signal-to-background with β10-L73J [1]: 126

G3-β10 (DARPin G3 with β10 at the C-terminus) (designed binder)
TEC signal-to-background with PertH-β9 [1]: 103
TEC signal-to-background with β9-L73J [1]: 1360
TEC signal-to-background with β9-LPert [1]: 353

β9-9.29 (DARPin 9.29 with β9 at the N-terminus) (designed binder)
TEC signal-to-background with PertH-β10 [1]: 671
TEC signal-to-background with β10-L73J [1]: 173

β9-G3 (DARPin G3 with β9 at the N-terminus) (designed binder)
TEC signal-to-background with 9.29-β10 [1]: 122
TEC signal-to-background with 73JH-β10 [1]: 219

β10-G3 (DARPin G3 with β10 at the N-terminus) (designed binder)
TEC signal-to-background with β9-L73J [1]: 197

B1: 11S (beta-strands 1-9 of NanoLuc, main fragment of NanoBiT) (domain or fragment)
chain: MVFTLEDFVGDWEQTAAYNLDQVLEQGGVSSLLQNLAVSVTPIQRIVRSGENALKIDIHVIIPYEGLSADQMAQIEEVFKVVYPVDDHHFKVILPYGTLVIDGVTPNMLNYFGRPYEGIAVFDGKKITVTGTLWNGNKIIDERLITPDGSMLFRVTINS
Kd [2]: 4 nM
